For orientation: IC50 means the concentration that gives 50% inhibition.

The chains are these.
B1: GLP-1 derivative of Example 19 (peptide)
peptide: H[Aib]EGTFTSDVSSYLEEQAAREFIAWLVRGRGK
modifications: not fully specified (residue 32)
notes: also called Chem. 39; N{Alpha}([Aib8,Glu22,Arg26,Arg34]-GLP-1-(7-37)-peptidyl)-N{Epsilon}-acylated Lys
B2: GLP-1 derivative of Example 7 (peptide)
peptide: [Desaminohistidyl][Aib]EGTFTSDVSSYLEEQAAREFIAWLVRGRGGK([AEEA-AEEA-Lys-AEEA-AEEA-γGlu-Trx-C20 diacid),(Ado-AEEA-γGlu-Trx-C20 diacid])
modifications: also: branched side chain on Lys39: two identical arms on eps-Lys(Bis)
notes: also called Chem. 27; [Imp7,Aib8,Glu22,Arg26,Arg34]-GLP-1-(7-37)-peptidyl-Gly-N{Epsilon}-acylated Lys
B3: GLP-1 derivative of Example 6 (peptide)
peptide: [Desaminohistidyl][Aib]EGTFTSDVSSYLEEQAAREFIAWLVRGRGGK([AEEA-AEEA-AEEA-AEEA-Lys-code γGlu-Trx-C20 diacid),(γGlu-Trx-C20 diacid])
modifications: also: branched side chain on Lys39: two identical arms on eps-Lys(Bis)
notes: also called Chem. 26; [Imp7,Aib8,Glu22,Arg26,Arg34]-GLP-1-(7-37)-peptidyl-Gly-N{Epsilon}-acylated Lys
B4: GLP-1 derivative of Example 5 (peptide)
peptide: HXEGTFTSDVSSYLEEQAAREFIAWLVRGRK
modifications: not fully specified; Aib at position 8 (GLP-1 numbering); epsilon-amino of Lys37 acylated with branched side chain: Pre-linker dPEG20; Branched linker eps-Lys(Bis); two Post-linkers Trx-gGlu, each carrying a C20 diacid Protractor
notes: also called Chem. 25; N{Epsilon-37}-acylated [Aib8,Glu22,Arg26,Arg34,Lys37]-GLP-1-(7-37)-peptide
B5: GLP-1 derivative of Example 8 (peptide)
peptide: B4 peptide
modifications: Aib at position 8 (GLP-1 numbering); epsilon-amino of Lys37 acylated with branched side chain: Pre-linker 4xAdo; Branched linker eps-Lys(Bis); two Post-linkers Trx-gGlu, each carrying a C20 diacid Protractor
notes: also called Chem. 28; N{Epsilon-37}-acylated [Aib8,Glu22,Arg26,Arg34,Lys37]-GLP-1-(7-37)-peptide
B6: GLP-1 derivative of Example 22 (peptide)
peptide: B4 peptide
modifications: Aib at position 8 (GLP-1 numbering); epsilon-amino of Lys37 acylated with branched side chain: Pre-linker 3xAdo; Branched linker eps-Lys(Bis); two Post-linkers Trx-gGlu-3xAdo, each carrying a C20 diacid Protractor (the printed name gives (4R) for the gGlu of one arm and (4S) for the other)
notes: also called Chem. 42; N{Epsilon-37}-acylated [Aib8,Glu22,Arg26,Arg34,Lys37]-GLP-1-(7-37)-peptide
B7: GLP-1 derivative of Example 10 (peptide)
peptide: B4 peptide
modifications: not fully specified; Aib at position 8 (GLP-1 numbering); epsilon-amino of Lys37 acylated with branched side chain: Pre-linker 4xeps-Lys; Branched linker eps-Lys(Bis); two Post-linkers Trx-gGlu, each carrying a C20 diacid Protractor
notes: also called Chem. 30; N{Epsilon-37}-acylated [Aib8,Glu22,Arg26,Arg34,Lys37]-GLP-1-(7-37)-peptide
B8: GLP-1 derivative of Example 11 (peptide)
peptide: B4 peptide
modifications: Aib at position 8 (GLP-1 numbering); epsilon-amino of Lys37 acylated with branched side chain: Pre-linker 2xAdo; Branched linker eps-Lys(Bis); two Post-linkers Trx-gGlu, each carrying a C20 diacid Protractor
notes: also called Chem. 31; N{Epsilon-37}-acylated [Aib8,Glu22,Arg26,Arg34,Lys37]-GLP-1-(7-37)-peptide
B9: GLP-1 derivative of Example 14 (peptide)
peptide: B4 peptide
modifications: not fully specified; Aib at position 8 (GLP-1 numbering); epsilon-amino of Lys37 acylated with branched side chain: Pre-linker 2xAdo; Branched linker eps-Lys(Bis); two Post-linkers Trx-gGlu-4xAdo, each carrying a C20 diacid Protractor
notes: also called Chem. 34; N{Epsilon-37}-acylated [Aib8,Glu22,Arg26,Arg34,Lys37]-GLP-1-(7-37)-peptide
B10: GLP-1 derivative of Example 9 (peptide)
peptide: B4 peptide
modifications: not fully specified; Aib at position 8 (GLP-1 numbering); epsilon-amino of Lys37 acylated with branched side chain: Pre-linker 2xeps-Lys; Branched linker eps-Lys(Bis); two Post-linkers Trx-gGlu, each carrying a C20 diacid Protractor
notes: also called Chem. 29; N{Epsilon-37}-acylated [Aib8,Glu22,Arg26,Arg34,Lys37]-GLP-1-(7-37)-peptide
B11: GLP-1 derivative of Example 2 (peptide)
peptide: B4 peptide
modifications: not fully specified; Aib at position 8 (GLP-1 numbering); epsilon-amino of Lys37 acylated with branched side chain: Pre-linker 2xAdo; Branched linker eps-Lys(Bis); two Post-linkers Trx-gGlu-2xAdo, each carrying a C20 diacid Protractor
notes: also called Chem. 22; N{Epsilon-37}-acylated [Aib8,Glu22,Arg26,Arg34,Lys37]-GLP-1-(7-37)-peptide
B12: GLP-1 derivative of Example 15 (peptide)
peptide: B4 peptide
modifications: not fully specified; Aib at position 8 (GLP-1 numbering); epsilon-amino of Lys37 acylated with branched side chain: Pre-linker 4xAdo; Branched linker eps-Lys(Bis); two Post-linkers Trx-gGlu-2xAdo, each carrying a C20 diacid Protractor
notes: also called Chem. 35; N{Epsilon-37}-acylated [Aib8,Glu22,Arg26,Arg34,Lys37]-GLP-1-(7-37)-peptide
B13: GLP-1 derivative of Example 13 (peptide)
peptide: B4 peptide
modifications: Aib at position 8 (GLP-1 numbering); epsilon-amino of Lys37 acylated with branched side chain: Pre-linker 8xAdo; Branched linker eps-Lys(Bis); two Post-linkers Trx-gGlu, each carrying a C20 diacid Protractor
notes: also called Chem. 33; N{Epsilon-37}-acylated [Aib8,Glu22,Arg26,Arg34,Lys37]-GLP-1-(7-37)-peptide
B14: GLP-1 derivative of Example 12 (peptide)
peptide: B4 peptide
modifications: Aib at position 8 (GLP-1 numbering); epsilon-amino of Lys37 acylated with branched side chain: Pre-linker 6xAdo; Branched linker eps-Lys(Bis); two Post-linkers Trx-gGlu, each carrying a C20 diacid Protractor
notes: also called Chem. 32; N{Epsilon-37}-acylated [Aib8,Glu22,Arg26,Arg34,Lys37]-GLP-1-(7-37)-peptide
B15: GLP-1 derivative of Example 4 (peptide)
peptide: B4 peptide
modifications: not fully specified; Aib at position 8 (GLP-1 numbering); epsilon-amino of Lys37 acylated with branched side chain: Pre-linker dPEG12; Branched linker eps-Lys(Bis); two Post-linkers Trx-gGlu, each carrying a C20 diacid Protractor
notes: also called Chem. 24; N{Epsilon-37}-acylated [Aib8,Glu22,Arg26,Arg34,Lys37]-GLP-1-(7-37)-peptide
B16: GLP-1 derivative of Example 21 (peptide)
peptide: B4 peptide
modifications: not fully specified; Aib at position 8 (GLP-1 numbering); epsilon-amino of Lys37 acylated with branched side chain: Pre-linker 4xAdo; Branched linker eps-Lys(Bis); two Post-linkers Trx-gGlu-Ado, each carrying a C20 diacid Protractor
notes: also called Chem. 41; N{Epsilon-37}-acylated [Aib8,Glu22,Arg26,Arg34,Lys37]-GLP-1-(7-37)-peptide
B17: GLP-1 derivative of Example 17 (peptide)
peptide: H[Aib]EGTFTSDVSSYLEEQAAREFIAWLVRKRG
modifications: not fully specified (residue 29)
notes: also called Chem. 37; N{Epsilon-35}-acylated [Aib8,Glu22,Arg26,Arg34,Lys35]-GLP-1-(7-37)-peptide
B18: GLP-1 derivative of Example 18 (peptide)
peptide: H[Aib]EGTFTSDVSSYLEEQAAREFIAWLVRGKG
modifications: not fully specified (residue 30)
notes: also called Chem. 38; N{Epsilon-36}-acylated [Aib8,Glu22,Arg26,Arg34,Lys36]-GLP-1-(7-37)-peptide
B19: GLP-1 derivative of Example 1 (peptide)
peptide: B4 peptide
modifications: not fully specified; Aib at position 8 (GLP-1 numbering); epsilon-amino of Lys37 acylated with branched side chain: Pre-linker Ado; Branched linker eps-Lys(Bis); two Post-linkers Trx-gGlu-2xAdo, each carrying a C20 diacid Protractor
notes: also called Chem. 21; N{Epsilon-37}-acylated [Aib8,Glu22,Arg26,Arg34,Lys37]-GLP-1-(7-37)-peptide
B20: GLP-1 derivative of Example 3 (peptide)
peptide: B4 peptide
modifications: not fully specified; Aib at position 8 (GLP-1 numbering); epsilon-amino of Lys37 acylated with branched side chain: Pre-linker dPEG6; Branched linker eps-Lys(Bis); two Post-linkers Trx-gGlu, each carrying a C20 diacid Protractor
notes: also called Chem. 23; N{Epsilon-37}-acylated [Aib8,Glu22,Arg26,Arg34,Lys37]-GLP-1-(7-37)-peptide

Starred links: 1 amine or outer side, 2 acyl side, 3 side chain; linkers in the order of their positions; H or OH if unused. Non-standard residues stand in square brackets, D forms with d. Groups on a side chain read outwards from the residue. No end group written: not given here. *: point of attachment. C20 diacid = O=C(O)CCCCCCCCCCCCCCCCCCC(=O)*; γGlu = O=C(O)[C@H](CCC(=O)[*:2])N[*:1]; Desaminohistidyl = O=C(CCc1c[nH]cn1)*; Trx = NC[C@H]1CC[C@H](C(=O)O)CC1; AEEA = NCCOCCOCC(=O)O; Aib = CC(C)(N)C(=O)O

The first test deals with T1, human GLP-1 receptor (human, UniProt P43220 24-463).
T1 construct: whole, on cells
As to the kind of experiment: SPA competition, displacement of 125I-GLP-1(7-36)NH2 from BHK membranes with human GLP-1 receptor; low HSA (max. 0.001%).
Procedure: (§1) For the receptor binding assay in the presence of low HSA (0.005%) 50 μl of the assay buffer was added to each well of an assay plate. […] For the receptor binding assay in the presence of high HSA (2%) 50 μl of the 8% albumin stock was added to each well of an assay plate. […] Cell membrane aliquots were thawed and diluted to their working concentration. Fifty μl were added to each well in the assay plate. […] WGA SPA beads were suspended in assay buffer at 20 mg/ml. The suspension was diluted to 10 mg/ml in assay buffer just prior to addition to the assay plate. Fifty μl were added to each well in the assay plate. […] A 25 μl aliquot was reserved for measuring total counts/well. […] The assay plate was incubated for 2 h at 30° C. […] The assay plate was centrifuged for 10 min. […] The assay plate was read in a Packard TopCount NXT instrument.
(§2) The data from the TopCount instrument were transferred to GraphPad Prism software. Individual replicates were analysed using non-linear regression.
For the molecule B1, the IC50 stood at 0.69 nM.

The molecule B2 showed an IC50 of 0.57 nM.

For the molecule B3, the concentration for half-maximal inhibition (IC50) amounted to 1 nM. Against the preceding molecule, the IC50 is about 1.8-fold higher.

B4: the IC50 came to 0.91 nM.

B5: the IC50 worked out at 1.1 nM.

In turn, B6 displayed an IC50 of 1.4 nM.

B7 returned a 50% inhibitory concentration (IC50) of 19 nM.

Take B8: the 50% inhibitory concentration (IC50) is 1.5 nM. This IC50 lies about 13-fold lower than the previous one.

Molecule B9 showed an IC50 of 0.42 nM.

Take B10: the IC50 stood at 1.8 nM.

B11 had an IC50 of 0.56 nM. This IC50 lies about 3.2-fold lower than the previous one.

The molecule B12 returned an IC50 of 0.87 nM. This IC50 lies about 1.6-fold higher than the previous one.

The molecule B13 came in with an IC50 of 0.17 nM.

Molecule B14 returned an IC50 of 0.63 nM. This IC50 is about 3.7-fold higher than that of the molecule before.

For the molecule B15, the half-inhibitory concentration (IC50) was determined as 0.78 nM.

The molecule B16 showed an IC50 of 1.5 nM.

B17: the IC50 was found to be 0.64 nM.

On to B18, for which the IC50 worked out at 0.68 nM.

In the next test the target is T1, human GLP-1 receptor. Put plainly: SPA competition, displacement of 125I-GLP-1(7-36)NH2 from BHK membranes with human GLP-1 receptor; high HSA (2.0%).
Procedure: as §1, §2
B1 displayed an IC50 of 34 nM.

Take B2: the IC50 turned out to be 54 nM.

Molecule B3 had a 50% inhibitory concentration (IC50) of 140 nM. Compared with the last molecule, the IC50 is about 2.6-fold higher.

Take B19: the IC50 turned out to be 140 nM.

On to B4, for which the IC50 was 9.7 nM.

For the molecule B5, the IC50 turned out to be 45 nM.

Consider B6, for which the IC50 came out at 63 nM. The IC50 values of the last two molecules are within 1.5-fold of each other.

B8 came in with an IC50 of 150 nM.

In turn, B9 gave an IC50 of 27 nM.

In turn, B10 came in with an IC50 of 150 nM.

As for B11, the IC50 was found to be 49 nM.

B12: the IC50 was 48 nM.

Regarding B13, the IC50 was 32 nM.

With B14, the IC50 is 17 nM.

In turn, B15 came in with an IC50 of 51 nM.

As for B16, the IC50 came out at 19 nM.

Molecule B20 came in with an IC50 of 180 nM.

The molecule B17 returned an IC50 of 77 nM.

Take B18: the IC50 stood at 24 nM. Compared with the last molecule, the IC50 is about 3.2-fold lower.

Another test has as its target T1, human GLP-1 receptor. Put plainly: cell-based or functional assay.
As to B1, the “EC50 (pM), in vitro potency, CRE luciferase reporter in BHK cells expressing the human GLP-1 receptor” value (from here on “EC50 (pM), in vitro potency”) was 71 pM.

For the molecule B2, the “EC50 (pM), in vitro potency” value came to 79 pM.

For B3, the “EC50 (pM), in vitro potency” value turned out to be 150 pM.

Consider B19, for which the “EC50 (pM), in vitro potency” value is 77 pM.

With B4, the “EC50 (pM), in vitro potency” value came to 53 pM.

For the molecule B5, the “EC50 (pM), in vitro potency” value was determined as 72 pM.

As to B6, the “EC50 (pM), in vitro potency” value stood at 12 pM.

For the molecule B7, the “EC50 (pM), in vitro potency” value was found to be 150 pM.

Turning to B8, the “EC50 (pM), in vitro potency” value was found to be 130 pM.

For the molecule B9, the “EC50 (pM), in vitro potency” value was found to be 19 pM.

Turning to B10, the “EC50 (pM), in vitro potency” value was 120 pM.

Regarding B11, the “EC50 (pM), in vitro potency” value turned out to be 70 pM.

Take B12: the “EC50 (pM), in vitro potency” value was 48 pM.

Consider B13, for which the “EC50 (pM), in vitro potency” value came out at 47 pM.

Turning to B14, the “EC50 (pM), in vitro potency” value was 57 pM.

Take B15: the “EC50 (pM), in vitro potency” value worked out at 110 pM.

Take B16: the “EC50 (pM), in vitro potency” value was 38 pM.

As to B20, the “EC50 (pM), in vitro potency” value worked out at 160 pM.

B17: the “EC50 (pM), in vitro potency” value amounted to 20 pM.

For the molecule B18, the “EC50 (pM), in vitro potency” value is 37 pM.

The values above are taken from patent publication US20180258153A1 (Novo Nordisk, published 2018).
